Biological target: PfRH5FL (full-length PfRH5 protein comprising amino acids E26–Q526) (P. falciparum (3D7 clone), UniProt Q8IFM5 26-526, T40A | T216A | T286A | T299A)
Assay: SPR
Conditions: both partners purified

B1: PfP113Nt (domain or fragment)
chain: YVHNDVIKFGEENSLKCSQGNLYVLHCEVQCLNGNNEIIHKRCNDDIEKKCNGNNKCIYFFEYELRKKTQSFRNKNSIEISECVESEQNEVKTSTTCLLSNSFILDEAFIQYFFFIKNKNEEPVICKDGNINIKSALLHSPFCEIKLKDISEYIRKKCDNNKECLIDPLDVQKNLLNEEDPCYINNSYVSVNVVCNK
Question: Does B1 bind?
Answer: binds

From paper PMC6602525 (Cell, 2019)
